Test [1] deals with 17G4, recombinant IgG2c antibody. Description: inhibition ELISA: antigen in solution varied, antibody 17G4 at 0.05 µg/ml, plate coated with G200-BSA peptide. As for the experimental part:
(§1) The pre-incubated samples were transferred (50 μl/well) to the blocked ELISA plates, and plates were incubated for 25 min at room temperature without shaking. Plates were washed as described above. Alkaline phosphatase conjugated anti-mouse IgG detection antibody (Mabtech, cat. no. 3310-4) was diluted 1:1000 and added to each plate (50 μl/well). The plate was sealed and incubated with shaking (900 rpm) for 45 min at room temperature and subsequently washed as described above. Alkaline phosphatase substrate (50 μl/well) was added to the plate and the optical density was read every 15 min at a wavelength of 405 nm for up to 120 min. The IC50 values were determined from a log inhibitor concentration response curve (FIG. 17).
A general note: An ELISA detects its analyte on a solid surface through an enzyme-linked reagent.

For test [2] the target is unchanged. Description: inhibition ELISA 2nd protocol: antigen in solution varied, antibody 17G4, plate coated with G200-BSA peptide. As for the experimental part:
as §1
(§2) In addition, a second inhibition ELISA with the ApoE peptides conjugated to BSA was run, in which the starting concentration of the antigens in solution was increased 10-fold. i.e. the starting concentration of the N-terminal neo-epitope of synthetic ApoE peptides conjugated to BSA and starting at amino acid L198 (SEQ ID NO:52), A199 (SEQ ID NO:51) or G200 (SEQ ID NO:50), or to BSA-conjugated negative control peptide (SEQ ID NO:53), was 10000 ng/ml. […] IC50 values were determined from a log inhibitor concentration response curve (FIG. 20).

Test [3] concerns the target 7C7, recombinant IgG2c antibody. Description: inhibition ELISA: antigen in solution varied, antibody 7C7 at 0.05 µg/ml, plate coated with G200-BSA peptide. As for the experimental part: as §1
The target of test [4] is 28F2, recombinant IgG2c antibody. Description: inhibition ELISA: antigen in solution varied, antibody 28F2 at 0.05 µg/ml, plate coated with G200-BSA peptide. As for the experimental part: (§3) […] of each synthetic ApoE peptide, recombinant C-terminal ApoE fragment G200-HIS and full-length ApoE4 were prepared by 4-fold dilution starting from 1000 ng/ml in 96 well storage plates (30 μl final volume). Each recombinant antibody to be tested was added (30 μl) to the serial dilutions of each of the synthetic ApoE peptides, G200-HIS or full-length ApoE4 at a final concentration of 0.05 μg/ml per well. Samples were pre-incubated for 45 min at room temperature with shaking (900 rpm).
as §1

Test [5] concerns the target T1, 7B10, recombinant IgG2c antibody.
T1 construct: also called 7610
Description: inhibition ELISA: antigen in solution varied, antibody 7B10 at 0.05 µg/ml, plate coated with G200-BSA peptide. As for the experimental part: as §1

Test [6] shares this target. Nature of the test: inhibition ELISA 2nd protocol: antigen in solution varied, antibody 7B10, plate coated with G200-BSA peptide. As for the experimental part: as §3
as §1, with “17). […]” for “17).”

Test [7] concerns the target 23D5, recombinant IgG2c antibody. Nature of the test: inhibition ELISA 2nd protocol: antigen in solution varied, antibody 23D5, plate coated with G200-BSA peptide. As for the experimental part:
as §1, §2

Test [8] deals with 36A12, monoclonal anti-A199 antibody. Nature of the test: inhibition ELISA; antibody at 0.05 ug/ml pre-incubated with the peptide in solution (4-fold dilutions from 10000 ng/ml), then on a plate coated with A199-BSA peptide; blank reduced OD 405 nm. As for the experimental part:
(§4) 0.5 μg/ml solution of N-terminal neo-epitope peptide A199 (SEQ ID NO:51) conjugated to BSA was prepared by dilution in PBS. 50 μl/well were added to an ELISA half-area 96 well microtiter plate, the plate was sealed with adhesive sealer and incubated over night at 4° C. After discarding the solution, the plates were blocked with protein-free blocking solution (Pierce) (150 μl/well) at room temperature for 90 min with shaking (900 rpm). The blocked plate was washed four times with washing buffer containing 0.28 mM NaH₂PO₄, 2.5 mM Na₂HPO₄, 150 mM NaCl, 0.1% TWEEN®-20 and 0.0075% Kathon CG.
(§5) Serial dilutions of each synthetic ApoE peptide were prepared by 4-fold dilution starting from 10000 ng/ml in 96 well storage plates (30 μl final volume). Each purified monoclonal antibody to be tested was added (30 μl) to the serial dilutions of each of the synthetic ApoE peptides at a final concentration of 0.05 μg/ml per well. Samples were pre-incubated for 45 min at room temperature with shaking (900 rpm).
as §1, with “10” for “25”, “10” for “15”, “29).” for “17).”

The target in test [9] is 38G9, monoclonal anti-A199 antibody. Described as above. As for the experimental part: as §4, §5
as §1, with “10” for “25”, “10” for “15”, “29).” for “17).”

Test [10] has as its target 23D5, recombinant IgG2c antibody. Description: inhibition ELISA: antigen in solution varied, antibody 23D5 at 0.05 µg/ml, plate coated with G200-BSA peptide. As for the experimental part: as §1
For test [11], the target named is 28F2, recombinant IgG2c antibody. Description: inhibition ELISA 2nd protocol: antigen in solution varied, antibody 28F2, plate coated with G200-BSA peptide. As for the experimental part:
as §3
as §1, with “17). […]” for “17).”

The target in test [12] is 7C7, recombinant IgG2c antibody. Nature of the test: inhibition ELISA 2nd protocol: antigen in solution varied, antibody 7C7, plate coated with G200-BSA peptide. As for the experimental part: as §1, §2
Test [13] has as its target 6F4, monoclonal anti-L198 antibody. Nature of the test: inhibition ELISA; antibody at 0.05 ug/ml pre-incubated with the peptide in solution (4-fold dilutions from 10000 ng/ml), then on a plate coated with L198-BSA peptide; blank reduced OD 405 nm. As for the experimental part:
(§6) 0.5 μg/ml solution of N-terminal neo-epitope peptide L198 (SEQ ID NO:52) conjugated to BSA was prepared by dilution in PBS. 50 μl/well were added to an ELISA half-area 96 well microtiter plate, the plate was sealed with adhesive sealer and incubated over night at 4° C. After discarding the solution, the plates were blocked with protein-free blocking solution (Pierce) (150 μl/well) at room temperature for 90 min with shaking (900 rpm). The blocked plate was washed four times with washing buffer containing 0.28 mM NaH₂PO₄, 2.5 mM Na₂HPO₄, 150 mM NaCl, 0.1% TWEEN®-20 and 0.0075% Kathon CG.
(§7) Serial dilutions of each synthetic ApoE peptide were prepared by 4-fold dilution starting from 10000 ng/ml in 96 well storage plates (30 μl final volume). Each recombinant antibody to be tested was added (30 μl) to the serial dilutions of each of the synthetic ApoE peptides at a final concentration of 0.05 μg/ml per well. Samples were pre-incubated for 45 min at room temperature with shaking (900 rpm).
as §1, with “10” for “25”, “10” for “15”, “25).” for “17).”

Test [14] deals with 15F8, monoclonal anti-L198 antibody. The test is described as above. As for the experimental part: as §6, §7
as §1, with “10” for “25”, “10” for “15”, “25).” for “17).”

Test [15] concerns the target 38G9, monoclonal anti-A199 antibody. Description: inhibition ELISA: antigen in solution varied, antibody 38G9 at 0.05 µg/ml, plate coated with A199-BSA peptide. As for the experimental part:
as §4
(§8) Serial dilutions of each synthetic ApoE peptide were prepared by 4-fold dilution starting from 10000 ng/ml in 96 well storage plates (30 μl final volume). Each purified monoclonal antibody to be tested was added (30 μl) to the serial dilutions of each of the synthetic ApoE peptides at a final concentration of 0.05 μg/ml per well. […]
(§9) The pre-incubated samples were transferred (50 μl/well) to the blocked ELISA plates, and plates were incubated for 10 min at room temperature without shaking. […] Alkaline phosphatase substrate (50 μl/well) was added to the plate and the optical density was read every 10 min at a wavelength of 405 nm for up to 120 min. The IC50 values were determined from a log inhibitor concentration response curve (FIG. 29).

The target in test [16] is 23D5, recombinant IgG2c antibody. Description: inhibition ELISA, second protocol; antibody at 0.05 ug/ml pre-incubated with the peptide in solution (4-fold dilutions from 10000 ng/ml), then on a plate coated with G200-BSA peptide; blank reduced OD 405 nm. As for the experimental part:
as §3, §1
(§10) In addition, a second inhibition ELISA with the ApoE peptides conjugated to BSA was run, in which the starting concentration of the antigens in solution was increased 10-fold. i.e. the starting concentration of the N-terminal neo-epitope of synthetic ApoE peptides conjugated to BSA and starting at amino acid L198 (SEQ ID NO:52), A199 (SEQ ID NO:51) or G200 (SEQ ID NO:50), or to BSA-conjugated negative control peptide (SEQ ID NO:53), was 10000 ng/ml. Furthermore, a 4-fold serial dilution of antigen was used, the plates were blocked with protein-free blocking solution (Pierce) for 90 min, the pre-incubated samples were incubated on the coated plates for 10 min (instead of 25 min), and the optical density was read every 10 min (instead of every 15 min). IC50 values were determined from a log inhibitor concentration response curve (FIG. 20).

Test [17] has as its target 7C7, recombinant IgG2c antibody. The test is described as above. As for the experimental part: as §3, §1, §10
Test [18] deals with T1, 7B10, recombinant IgG2c antibody. Described as above. As for the experimental part:
as §3, §1, §10

Test [19] addresses 17G4, recombinant IgG2c antibody. The description is as above. As for the experimental part:
as §3, §1, §10

Test [20] deals with 36A12, monoclonal anti-A199 antibody. Description: inhibition ELISA: antigen in solution varied, antibody 36A12 at 0.05 µg/ml, plate coated with A199-BSA peptide. As for the experimental part: as §4, §8, §9
Test [21] concerns the target 63F6, monoclonal anti-A199 antibody. Description: inhibition ELISA: antigen in solution varied, antibody 63F6 at 0.05 µg/ml, plate coated with A199-BSA peptide. As for the experimental part:
as §4, §8, §9

The target in test [22] is 67G3, monoclonal anti-A199 antibody. Nature of the test: inhibition ELISA: antigen in solution varied, antibody 67G3 at 0.05 µg/ml, plate coated with A199-BSA peptide. As for the experimental part:
as §4, §8, §9

Non-standard residues stand in square brackets, D forms with d. No end group written: not given here. Ahx = NCCCCCC(=O)O

23D5, recombinant IgG2c antibody, sequence (VH, as listed by the source, chain 1 of 2): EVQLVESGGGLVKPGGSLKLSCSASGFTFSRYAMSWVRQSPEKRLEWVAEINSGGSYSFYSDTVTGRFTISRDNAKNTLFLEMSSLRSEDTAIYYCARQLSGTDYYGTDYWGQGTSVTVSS
23D5, recombinant IgG2c antibody, sequence (VL, as listed by the source, chain 2 of 2): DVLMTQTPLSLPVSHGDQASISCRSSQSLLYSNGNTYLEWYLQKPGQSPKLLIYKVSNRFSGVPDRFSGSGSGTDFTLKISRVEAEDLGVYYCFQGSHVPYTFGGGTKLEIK
T1 sequence (VH, as listed by the source, chain 1 of 2): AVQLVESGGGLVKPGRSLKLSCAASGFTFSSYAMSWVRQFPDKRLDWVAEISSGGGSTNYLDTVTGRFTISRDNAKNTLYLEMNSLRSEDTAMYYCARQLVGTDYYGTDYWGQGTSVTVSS
T1 sequence (VL, as listed by the source, chain 2 of 2): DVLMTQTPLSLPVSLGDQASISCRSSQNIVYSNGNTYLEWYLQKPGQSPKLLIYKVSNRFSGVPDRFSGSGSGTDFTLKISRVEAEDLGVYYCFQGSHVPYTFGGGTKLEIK
7C7, recombinant IgG2c antibody, sequence (VH, as listed by the source, chain 1 of 2): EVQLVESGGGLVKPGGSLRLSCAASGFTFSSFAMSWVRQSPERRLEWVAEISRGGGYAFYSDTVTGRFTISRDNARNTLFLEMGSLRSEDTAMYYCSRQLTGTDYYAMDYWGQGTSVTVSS
7C7, recombinant IgG2c antibody, sequence (VL, as listed by the source, chain 2 of 2): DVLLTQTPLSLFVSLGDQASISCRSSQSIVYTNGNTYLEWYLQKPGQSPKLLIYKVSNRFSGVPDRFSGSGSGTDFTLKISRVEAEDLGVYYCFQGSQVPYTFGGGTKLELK
17G4, recombinant IgG2c antibody, sequence (VH, as listed by the source, chain 1 of 2): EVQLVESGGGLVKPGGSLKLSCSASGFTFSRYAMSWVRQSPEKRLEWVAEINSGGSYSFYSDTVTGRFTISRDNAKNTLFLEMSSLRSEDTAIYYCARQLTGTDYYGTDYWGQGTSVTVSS
6F4, monoclonal anti-L198 antibody, sequence (VH, as listed by the source, chain 1 of 2): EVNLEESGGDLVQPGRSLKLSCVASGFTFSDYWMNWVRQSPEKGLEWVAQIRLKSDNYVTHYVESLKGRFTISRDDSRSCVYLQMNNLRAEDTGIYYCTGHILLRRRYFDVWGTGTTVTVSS
6F4, monoclonal anti-L198 antibody, sequence (VL, as listed by the source, chain 2 of 2): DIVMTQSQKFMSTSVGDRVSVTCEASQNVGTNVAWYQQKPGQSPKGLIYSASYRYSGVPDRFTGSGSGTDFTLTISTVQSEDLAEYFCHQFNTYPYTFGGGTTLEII
28F2, recombinant IgG2c antibody, sequence (VH, as listed by the source, chain 1 of 2): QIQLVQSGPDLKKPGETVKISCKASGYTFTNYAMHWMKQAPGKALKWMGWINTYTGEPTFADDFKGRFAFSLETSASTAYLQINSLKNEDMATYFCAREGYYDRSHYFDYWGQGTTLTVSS
28F2, recombinant IgG2c antibody, sequence (VL, as listed by the source, chain 2 of 2): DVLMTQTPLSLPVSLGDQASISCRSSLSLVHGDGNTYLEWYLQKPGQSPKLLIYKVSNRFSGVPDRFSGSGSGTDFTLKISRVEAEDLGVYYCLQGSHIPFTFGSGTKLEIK
36A12, monoclonal anti-A199 antibody, sequence (VH, as listed by the source, chain 1 of 2): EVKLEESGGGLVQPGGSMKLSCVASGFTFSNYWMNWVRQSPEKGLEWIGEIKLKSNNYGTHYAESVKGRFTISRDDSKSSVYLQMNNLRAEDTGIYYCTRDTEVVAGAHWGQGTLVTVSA
36A12, monoclonal anti-A199 antibody, sequence (VL, as listed by the source, chain 2 of 2): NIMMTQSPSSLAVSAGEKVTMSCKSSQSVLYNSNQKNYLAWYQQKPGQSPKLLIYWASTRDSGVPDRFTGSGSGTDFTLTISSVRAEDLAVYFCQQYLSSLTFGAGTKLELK
38G9, monoclonal anti-A199 antibody, sequence (VH, as listed by the source, chain 1 of 2): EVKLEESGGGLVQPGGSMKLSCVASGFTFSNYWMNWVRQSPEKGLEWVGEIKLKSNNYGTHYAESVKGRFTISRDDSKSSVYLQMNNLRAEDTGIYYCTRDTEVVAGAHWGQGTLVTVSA
38G9, monoclonal anti-A199 antibody, sequence (VL, as listed by the source, chain 2 of 2): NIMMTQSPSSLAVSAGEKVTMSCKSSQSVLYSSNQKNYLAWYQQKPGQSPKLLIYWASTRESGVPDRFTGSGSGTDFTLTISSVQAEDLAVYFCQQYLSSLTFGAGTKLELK
63F6, monoclonal anti-A199 antibody, sequence (VH, as listed by the source, chain 1 of 2): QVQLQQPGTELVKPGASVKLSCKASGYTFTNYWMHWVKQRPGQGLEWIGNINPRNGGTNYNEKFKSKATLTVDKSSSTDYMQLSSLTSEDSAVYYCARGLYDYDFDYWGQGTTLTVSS
63F6, monoclonal anti-A199 antibody, sequence (VL, as listed by the source, chain 2 of 2): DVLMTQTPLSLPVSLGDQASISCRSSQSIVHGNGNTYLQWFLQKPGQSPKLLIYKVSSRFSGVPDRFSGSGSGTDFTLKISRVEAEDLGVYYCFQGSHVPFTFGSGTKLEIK
15F8, monoclonal anti-L198 antibody, sequence (VH, as listed by the source, chain 1 of 2): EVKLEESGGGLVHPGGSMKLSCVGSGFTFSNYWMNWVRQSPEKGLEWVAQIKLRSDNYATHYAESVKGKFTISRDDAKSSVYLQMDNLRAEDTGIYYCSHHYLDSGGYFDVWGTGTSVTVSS
15F8, monoclonal anti-L198 antibody, sequence (VL, as listed by the source, chain 2 of 2): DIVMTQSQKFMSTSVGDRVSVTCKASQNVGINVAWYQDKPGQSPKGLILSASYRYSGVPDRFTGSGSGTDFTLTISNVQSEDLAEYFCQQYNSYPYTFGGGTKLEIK
67G3, monoclonal anti-A199 antibody, sequence (VH, as listed by the source, chain 1 of 2): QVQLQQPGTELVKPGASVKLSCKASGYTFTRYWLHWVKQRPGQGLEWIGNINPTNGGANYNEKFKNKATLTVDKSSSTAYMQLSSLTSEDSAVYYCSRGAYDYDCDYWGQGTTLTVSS
67G3, monoclonal anti-A199 antibody, sequence (VL, as listed by the source, chain 2 of 2): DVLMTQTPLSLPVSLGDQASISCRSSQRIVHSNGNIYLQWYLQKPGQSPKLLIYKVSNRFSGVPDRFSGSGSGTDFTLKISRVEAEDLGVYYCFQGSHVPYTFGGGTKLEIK

B1: G200 N-terminal neo-epitope peptide GQPLQE-Acp-C (SEQ ID NO:50) conjugated to BSA (peptide)
peptide: GQPLQE[Ahx]C
modifications: not fully specified (residue 8); printed as GQPLQE-Acp-C; also: C-terminal Cys conjugated to BSA carrier
notes: also called G200-BSA peptide; G200-peptide
On to B1, for which the IC50 is 2.9 ng/mL in [1]; 5.8 ng/mL in [2]; 3.1 ng/mL in [3]; 3.2 ng/mL in test [4]; 2.2 ng/mL in test [5]; 5.8 ng/mL in [6]. For the same molecule, the IC50 is 3.8 ng/mL in test [7], 2.8 ng/mL in test [10], 3.7 ng/mL in test [11] and 6.3 ng/mL in test [12]. In addition, the binding result in [8], in [9], in test [13] and in [14] was “no binding (tested: 10000 ng/ml)” each time.

B2: A199 N-terminal neo-epitope peptide AGQPLQ-Acp-C (SEQ ID NO:51) conjugated to BSA (peptide)
peptide: AGQPLQ[Ahx]C
modifications: not fully specified (residue 8); printed as AGQPLQ-Acp-C; also: C-terminal Cys conjugated to BSA carrier
notes: BSA carrier; also called A199-BSA peptide
With B2, the IC50 in test [15] was determined as 52.6 ng/mL; in test [20], 27.7 ng/mL; in test [21] it was 2.5 ng/mL; in test [22] it was 2.9 ng/mL. The binding result in [16], in [17], in test [18], in test [19] and in test [13] was “no binding (tested: 10000 ng/ml)” in each case.

As usually defined, the IC50 is the concentration that gives 50% inhibition.

The values above are taken from patent publication US20220242939A1 (BIOARCTIC, published 2022).
